Measurements reported in patent US20240392024A1 (SHANGHAI CELGEN BIO PHARMACEUTICAL, published 2024).
“And” between values parts separate entries of the source, which are not always exact repeats. Identical values can stand only once.

T1: human TNFR2 on the cell membrane (human, UniProt P20333 23-461)
T1 construct: whole, on cells; One molecule for all cell formats; also called TNFR2-CHO cells; CHO-TNFR2
T1 sequence (looked up): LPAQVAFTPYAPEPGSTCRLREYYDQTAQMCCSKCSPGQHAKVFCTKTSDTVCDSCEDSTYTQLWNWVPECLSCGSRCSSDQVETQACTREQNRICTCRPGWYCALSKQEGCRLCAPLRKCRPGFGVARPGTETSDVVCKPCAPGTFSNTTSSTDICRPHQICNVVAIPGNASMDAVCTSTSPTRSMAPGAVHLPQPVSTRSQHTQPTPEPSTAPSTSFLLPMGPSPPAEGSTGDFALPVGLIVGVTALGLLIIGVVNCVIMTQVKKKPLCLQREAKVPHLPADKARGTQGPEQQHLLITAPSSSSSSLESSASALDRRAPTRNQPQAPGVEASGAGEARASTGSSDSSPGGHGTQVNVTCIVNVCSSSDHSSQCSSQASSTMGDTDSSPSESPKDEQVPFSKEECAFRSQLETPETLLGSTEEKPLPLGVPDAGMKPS

T2: TNFR2-His (Sino Biological, 10417-H08H, NP_001057.1 Met1-Asp257, with multi-histidine tag expressed on … (human, UniProt P20333 23-257))
T2 construct: range 1-257; Bought protein; also called recombinant human TNFR2 protein; TNFR2-His antigen; not shown: C-terminal multi-histidine tag
T2 sequence (looked up): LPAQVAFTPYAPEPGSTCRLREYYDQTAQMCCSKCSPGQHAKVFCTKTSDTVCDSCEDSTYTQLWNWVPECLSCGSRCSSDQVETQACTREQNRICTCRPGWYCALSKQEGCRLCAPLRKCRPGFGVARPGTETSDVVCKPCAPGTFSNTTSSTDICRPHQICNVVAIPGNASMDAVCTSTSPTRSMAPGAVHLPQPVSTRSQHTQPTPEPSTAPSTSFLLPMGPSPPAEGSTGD

T3: WT
T3 construct: also called T cells of wild-type (WT) mice; mouse TNFR2 on the cell membrane
T3 chain: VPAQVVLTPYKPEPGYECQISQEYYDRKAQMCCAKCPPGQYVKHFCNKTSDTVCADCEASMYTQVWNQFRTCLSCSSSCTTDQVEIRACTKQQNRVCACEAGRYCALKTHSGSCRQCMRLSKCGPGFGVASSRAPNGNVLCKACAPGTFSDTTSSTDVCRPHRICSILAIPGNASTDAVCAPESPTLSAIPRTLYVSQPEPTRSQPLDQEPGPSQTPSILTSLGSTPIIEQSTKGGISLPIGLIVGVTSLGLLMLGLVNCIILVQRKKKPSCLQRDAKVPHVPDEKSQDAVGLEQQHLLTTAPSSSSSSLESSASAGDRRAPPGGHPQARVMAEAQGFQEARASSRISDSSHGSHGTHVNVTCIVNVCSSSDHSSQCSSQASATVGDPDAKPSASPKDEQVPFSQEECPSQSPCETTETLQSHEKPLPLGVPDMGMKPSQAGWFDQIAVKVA


What was measured:
[1] = biological target: T1, human TNFR2 on the cell membrane; test: flow cytometry on Jurkat-TNFR2 cells
Method: (§1) Purified human-mouse monoclonal antibodies against TNFR2 were co-cultured with TNFR2 positive Jurkat cells (Jurkat cells were transfected with pcDNA3.4-TNFR2 plasmid using conventional methods, and after screening, stable and highly expressed TNFR2 Jurkat cell lines were obtained) and stained. The antibody binding intensity was analyzed by flow cytometry. The specific steps are as follows: Jurkat-TNFR2 was counted, centrifuged, resuspended, then added to a 96-deep well plate, and the supernatant was discarded. The anti-TNFR2 antibody was gradient diluted, and added to the 96-deep well plate, After incubation and wash, the secondary antibody FITC-anti-human IgG (Abcam: 6854) was added, and the samples were detected using Beckman CytoFLEX.

[2] = biological target: T2, TNFR2-His (Sino Biological, 10417-H08H, …); test: competition ELISA on coated TNFR2-His against biotin-labeled TNFα fusion protein at fixed concentration
Method: (§2) The ELISA plate was coated with TNFR2-His antigen (Sino Biological, 10417-H08H, Assessment #NP_001057.1. Met1-Asp257, with multi-histidine tags expressed on C-terminus) and blocked, added with the gradient diluted TNFR2 monoclonal antibodies and biotin-labeled TNFα fusion protein of fixed concentration for incubation, then added with the secondary antibody Ap-Strepavidin (Herobio, 510401) for incubation. After development, the detection was performed using microplate reader.

[3] = biological target: T2, TNFR2-His (Sino Biological, 10417-H08H, …); test: ELISA, plate coated with TNFR2-His
Method: To determine whether the human-mouse chimeric TNFR2 monoclonal antibody of the present invention can bind to recombinant human TNFR2 protein, in vitro ELISA test was conducted. Similar to the method described above, The plate was coated with TNFR2-His (Sino Biological, 10417-H08H, Assessment #NP_001057.1.Met1-Asp257, with multi-histidine tag expressed on C-terminus) antigens, and blocked with BSA, then added with gradient diluted human-mouse chimeric TNFR2 monoclonal antibodies for incubation. Then, secondary antibody Ap-anit-human IgG Fc (JacksonImmuno Research, 109-055-098) was added for incubation After TMB development, ELISA reading was performed.

[4] = biological target: T2, TNFR2-His (Sino Biological, 10417-H08H, …); test: BLI, antibody captured on AHC probe, TNFR2 in solution
Method: The GATOR (ProbeLife) detection instrument and AHC (Pall, 185064), Human antibody Capture probe were used to detect the dissociation constant (Kd) of human-mouse chimeric TNFR2 monoclonal antibody.
The human-mouse chimeric TNFR2 monoclonal antibodies were diluted to 50 nM in binding buffer (Q buffer [PBS (10 mM PH7.4)+0.02% Tween 20+0.2% BSA). The recombinant human TNFR2 protein was diluted in Q buffer with a 2-fold gradient starting from the highest concentration of 100 nM. The kinetic association assay was conducted by placing the antibody capture sensor in the continuously diluted antigen solutions mentioned above. The Octet Data Acquisition software was pened and the New Kinetics Experiment-Basic Kinetics mode was selected.

[5] = biological target: T2, TNFR2-His (Sino Biological, 10417-H08H, …); test: competition ELISA, coated TNFR2-His, biotin-labeled TNFα fusion protein at fixed concentration
Method: as §2

[6] = biological target: T1, human TNFR2 on the cell membrane; test: flow cytometry on human PBMC, CD3+ T cells
Method: Purified anti-human TNFR2 human-mouse chimeric monoclonal antibodies were co-cultured with PBMC cells (Oricells) and stained. The binding of the antibody was analyzed by flow cytometry. The specific steps are as follows: PBMC cells (Oricells) were counted, centrifuged, resuspended, then added to a 96-deep well plate, and the supernatant was discarded. Diluted anti-TNFR2 monoclonal antibodies were added.

[7] = biological target: T2, TNFR2-His (Sino Biological, 10417-H08H, …); test: ELISA, coated TNFR2-His
Procedure, shortened: (§3)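 ELISA on plates coated with recombinant human TNFR2 carrying a C-terminal His tag, then blocked. Serially diluted antibodies were incubated, followed by an enzyme-labelled anti-IgG secondary antibody. Plates were developed with TMB and read on a microplate reader. EC50 is reported from the dilution series.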

[8] = biological target: T3, WT; test: flow cytometry on ConA-stimulated spleen cells of WT mice, mCD3+ T cells
Method: (§4) The cells were stained again with Cy-3 anti-human IgG and FITC anti-mCD3 (BD, 555274) after washing, under the same incubation conditions. After washing, the detection was performed.

[9] = biological target: T1, human TNFR2 on the cell membrane; test: competition flow cytometry, TNFR2 positive cells, TNFα fusion protein at fixed concentration
Method: Purified anti-human TNFR2 human-mouse monoclonal antibodies were co-cultured with TNFR2 positive cells and stained. The antibody binding intensity was analyzed by flow cytometry. The specific steps are as follows: cells were counted, centrifugated, resuspended, then added to a 96-deep well plate, and the supernatant was discarded. Gradient diluted anti-TNFR2 antibodies and TNFα fusion protein of fixed concentration were added. After incubation and wash, the secondary antibody PE-streptavidin (Biogen, 405203) was added for incubation, and the samples were detected using Beckman CytoFLEX.

[10] = biological target: T1, human TNFR2 on the cell membrane; test: flow cytometry, Jurkat-TNFR2 cells
Method: as §1

[11] = biological target: T1, human TNFR2 on the cell membrane; test: flow cytometry on ConA-stimulated spleen cells of hTNFR2-KI mice, mCD3+ T cells
Method: as §4

[12] = biological target: T2, TNFR2-His (Sino Biological, 10417-H08H, …); test: ELISA, plate coated with TNFR2-His; remark: listed apart in the source
Procedure, shortened: as §3

[13] = biological target: T1, human TNFR2 on the cell membrane; test: flow cytometry on CHO-TNFR2 cells
Procedure, shortened: (§5)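 Flow cytometry on CHO cells stably overexpressing human TNFR2, made by pcDNA3.4-TNFR2 transfection, drug selection and single-clone sorting. Cells in 96-deep-well plates were incubated with serially diluted antibodies, washed and stained with a fluorescent anti-IgG secondary antibody. Samples were read on a Beckman CytoFLEX. EC50 is reported from the dilution series.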

[14] = biological target: T2, TNFR2-His (Sino Biological, 10417-H08H, …); test: BLI, antibody captured on AHC probe, TNFR2-His in solution
Procedure, shortened: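 Kon, koff and Kd were derived from kinetic association measurements by bio-layer interferometry on an Octet in Basic Kinetics mode. Antibody-capture sensors held antibodies at 50 nM in Q buffer (10 mM PBS pH 7.4, 0.02% Tween 20, 0.2% BSA). These sensors were then placed in recombinant human TNFR2, diluted 2-fold in Q buffer from a top concentration of 100 nM.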

[15] = biological target: T1, human TNFR2 on the cell membrane; test: flow cytometry, CHO-TNFR2 cells
Procedure, shortened: as §5

EC50 [1] [µg/mL]	IC50 [2]	EC50 [3] [µg/mL]	Kd [4] [nM]	koff [4] [s⁻¹]	kon [4] [M⁻¹ s⁻¹]	IC50 [5] [µg/mL]	percent of cells in the upper right quadrant (Q1-UR, CD3+ and anti-human IgG Fc+) [6] [%]	EC50 [7] [nM]	binding result [8]	percent of cells in the upper right quadrant (Q2-UR, mCD3+ and anti-hIgG+) [8] [%]	IC50 [9] [µg/mL]	EC50 [10] [µg/mL]	percent of cells in the upper right quadrant (Q2-UR, mCD3+ and anti-hIgG+) [11] [%]	EC50 [12]	EC50 [13] [µg/mL]	Kd [14] [nM]	koff [14] [s⁻¹]	kon [14] [M⁻¹ s⁻¹]	EC50 [15] [nM]	Binder
14.2	0.648 µg/mL and 4.34 nM	0.037	16.3	0.00469	289000	0.642	13.6	0.248												human-mouse chimeric TNFR2 monoclonal antibody 29A1-hFc (antibody, V domains shown, Mouse V regions of clone 29A1 with human constant regions) VH: QVQLQQSGAEVVRPGASVTLSCKASGYTFSDYEMHWVKQTPVHGLEWIGAIDPETGDTAYNQKFKDKARVTADKSSSTAYMELRSLTSEDSAVYYCTRDIHYYGSSLSYFDYWGQGTTLTVSS VL: DIVMTQSQKFMSTSVGDRVSVTCKASQNVGTNVAWYQQKPGQSPKVMIYSASYRYSGAPDRFTGSGSGTDFTLTVNNVQSEDLAEYFCQQYKTYPYTFGGGTKLEIE
0.0243	0.229 µg/mL and 1.53 nM	0.0476	25.3	0.00639	253000	0.225		0.319	no binding	0.9	0.417	0.024	45							human-mouse chimeric TNFR2 monoclonal antibody 7F2-hFc (antibody, V domains shown, Mouse V regions of clone 7F2 with human constant regions) VH: QVTLKESGPGILQPSQTLSLTCSFSGFSLNTFGLGVGWIRQPSGKGLEWLTHIWWNDDKYYNPALKSRLTISRDTSENLVFLKIANVDTADTATYYCARIEGLRRFDYWGQGTTLTVSS VL: DIQMTQSPSSLSASLGGKVTITCKTSQDINKFIAWYQHKPGKGPRLLIHYTSTLQPGIPSRFSGSGSGRDYSFSISDLEPEDIATYYCLQYANLWAFGGGTKLEIK
0.658		0.0475	21.9	0.00286	131000			0.318	no binding	1.02		0.66	43.6	0.0782 µg/mL and 0.524 nM	0.142	17.3	0.00156	90500	0.951	human-mouse chimeric TNFR2 monoclonal antibody 33C12-hFc (antibody, V domains shown, Mouse V regions of clone 33C12 with human constant regions; also called human-mouse chimeric 33C12 antibody) VH: DVKLVESGGGLVKPGGSLKLSCAASGFTFSDYTMSWVRQTPEKRLEWVATISTGGSYTYYPDSVKGRFTISRDNAKNTLYLQMSSLKSEDTAMYYCTRDGGYDGDYFDYWGQGTTLTVSS VL: ENVLTQSPAIMSASPGEKVTMTCRASSSVSSSYLHWYQQKSGASPKLWIYRTSNLASGVPARFSGSGSGTSYSLTISSVEAEDAATYYCQQYSGYPLTFGAGTRLELK
